Test results from patent publication US20230250154A1 (CYTONICS, published 2023).

B1: Variant A2M, bait region SEQ ID NO 20 (other)
chain: SVSGKPQYMVLVPSLLHTETTEKGCVLLSYLNETVTVSASLESVRGNRSLFTDLEAENDVLHCVAFAVPKSSSNEEVMFLTVQVKGPTQEFKKRTTVMVKNEDSLVFVQTDKSIYKPGQTVKFRVVSMDENFHPLNELIPLVYIQDPKGNRIAQWQSFQLEGGLKQFSFPLSSEPFQGSYKVVVQKKSGGRTEHPFTVEEFVLPKFEVQVTVPKIITILEEEMNVSVCGLYTYGKPVPGHVTVSICRKYSDASDCHGEDSQAFCEKFSGQLNSHGCFYQQVKTKVFQLKRKEYEMKLHTEAQIQEEGTVVELTGRQSSEITRTITKLSFVKVDSHFRQGIPFFGQVRLVDGKGVPIPNKVIFIRGNEANYYSNATTDEHGLVQFSINTTNVMGTSLTVRVNYKDRSPCYGYQWVSEEHEEAHHTAYLVFSPSKSFVHLEPMSHELPCGHTQTVQAHYILNGGTLLGLKKLSFYYLIMAKGGIVRTGTHGLLVKQEDMKGHFSISIPVKSDIAPVARLLIYAVLPTGDVIGDSAKYDVENCLANKVDLSFSPSQSLPASHAHLRVTAAPQSVCALRAVDQSVLLMKPDAELSASSVYNLLPEKDLTGFPGPLNDQDDEDCINRHNVYINGITYTPVSSTNEKDMYSFLEDMGLKAFTNSKIRKPKMCPQLEHGPEFRGVTEGEGEGIPENFYGVSEDLVVQISELEGRGSVEEPHTKLRKYFPETWIWDLVVVNSAGVAEVGVTVPDTITEWKAGAFCLSEDAGLGISSTASLRAFQPFFVELTMPYSVIRGEAFTLKATVLNYLPKCIRVSVQLEASPAFLAVPVEKEQAPHCICANGRQTVSWAVTPKSLGNVNFTVSAEALESQELCGTEVPSVPEHGRKDTVIKPLLVEPEGLEKETTFNSLLCPSGGEVSEELSLKLPPNVVEESARASVSVLGDILGSAMQNTQNLLQMPYGCGEQNMVLFAPNIYVLDYLNETQQLTPEIKSKAIGYLNTGYQRQLNYKHYDGSYSTFGERYGRNQGNTWLTAFVLKTFAQARAYIFIDEAHITQALIWLSQRQKDNGCFRSSGSLLNNAIKGGVEDEVTLSAYITIALLEIPLTVTHPVVRNALFCLESAWKTAQEGDHGSHVYTKALLAYAFALAGNQDKRKEVLKSLNEEAVKKDNSVHWERPQKPKAPVGHFYEPQAPSAEVEMTSYVLLAYLTAQPAPTSEDLTSATNIVKWITKQQNAQGGFSSTQDTVVALHALSKYGAATFTRTGKAAQVTIQSSGTFSSKFQVDNNNRLLLQQVSLPELPGEYSMKVTGEGCVYLQTSLKYNILPEKEEFPFALGVQTLPQTCDEPKAHTSFQISLSVSYTGSRSASNMAIVDVKMVSGFIPLKPTVKMLERSNHVSRTEVSSNHVLIYLDKVSNQTLSLFFTVLQDVPVRDLKPAIVKVYDYYETDEFAIAEYNAPCSKDLGNADYKDDDDKGASHHHHHH
B2: Variant A2M, bait region SEQ ID NO 21 (other)
chain: SVSGKPQYMVLVPSLLHTETTEKGCVLLSYLNETVTVSASLESVRGNRSLFTDLEAENDVLHCVAFAVPKSSSNEEVMFLTVQVKGPTQEFKKRTTVMVKNEDSLVFVQTDKSIYKPGQTVKFRVVSMDENFHPLNELIPLVYIQDPKGNRIAQWQSFQLEGGLKQFSFPLSSEPFQGSYKVVVQKKSGGRTEHPFTVEEFVLPKFEVQVTVPKIITILEEEMNVSVCGLYTYGKPVPGHVTVSICRKYSDASDCHGEDSQAFCEKFSGQLNSHGCFYQQVKTKVFQLKRKEYEMKLHTEAQIQEEGTVVELTGRQSSEITRTITKLSFVKVDSHFRQGIPFFGQVRLVDGKGVPIPNKVIFIRGNEANYYSNATTDEHGLVQFSINTTNVMGTSLTVRVNYKDRSPCYGYQWVSEEHEEAHHTAYLVFSPSKSFVHLEPMSHELPCGHTQTVQAHYILNGGTLLGLKKLSFYYLIMAKGGIVRTGTHGLLVKQEDMKGHFSISIPVKSDIAPVARLLIYAVLPTGDVIGDSAKYDVENCLANKVDLSFSPSQSLPASHAHLRVTAAPQSVCALRAVDQSVLLMKPDAELSASSVYNLLPEKDLTGFPGPLNDQDDEDCINRHNVYINGITYTPVSSTNEKDMYSFLEDMGLKAFTNSKIRKPKMCPQLEHGPTEGEARGSPRYLTAIPENFYGVSEDLVVQISELEGRGSPHTKLRKYFPETWIWDLVVVNSAGVAEVGVTVPDTITEWKAGAFCLSEDAGLGISSTASLRAFQPFFVELTMPYSVIRGEAFTLKATVLNYLPKCIRVSVQLEASPAFLAVPVEKEQAPHCICANGRQTVSWAVTPKSLGNVNFTVSAEALESQELCGTEVPSVPEHGRKDTVIKPLLVEPEGLEKETTFNSLLCPSGGEVSEELSLKLPPNVVEESARASVSVLGDILGSAMQNTQNLLQMPYGCGEQNMVLFAPNIYVLDYLNETQQLTPEIKSKAIGYLNTGYQRQLNYKHYDGSYSTFGERYGRNQGNTWLTAFVLKTFAQARAYIFIDEAHITQALIWLSQRQKDNGCFRSSGSLLNNAIKGGVEDEVTLSAYITIALLEIPLTVTHPVVRNALFCLESAWKTAQEGDHGSHVYTKALLAYAFALAGNQDKRKEVLKSLNEEAVKKDNSVHWERPQKPKAPVGHFYEPQAPSAEVEMTSYVLLAYLTAQPAPTSEDLTSATNIVKWITKQQNAQGGFSSTQDTVVALHALSKYGAATFTRTGKAAQVTIQSSGTFSSKFQVDNNNRLLLQQVSLPELPGEYSMKVTGEGCVYLQTSLKYNILPEKEEFPFALGVQTLPQTCDEPKAHTSFQISLSVSYTGSRSASNMAIVDVKMVSGFIPLKPTVKMLERSNHVSRTEVSSNHVLIYLDKVSNQTLSLFFTVLQDVPVRDLKPAIVKVYDYYETDEFAIAEYNAPCSKDLGNADYKDDDDKGASHHHHHH

Columns and labels:
Assay in all cases: cell-based or functional assay
ADAMTS4 = target: T1, ADAMTS4 (human, UniProt O75173 213-685, limits assumed)
T1 sequence (looked up): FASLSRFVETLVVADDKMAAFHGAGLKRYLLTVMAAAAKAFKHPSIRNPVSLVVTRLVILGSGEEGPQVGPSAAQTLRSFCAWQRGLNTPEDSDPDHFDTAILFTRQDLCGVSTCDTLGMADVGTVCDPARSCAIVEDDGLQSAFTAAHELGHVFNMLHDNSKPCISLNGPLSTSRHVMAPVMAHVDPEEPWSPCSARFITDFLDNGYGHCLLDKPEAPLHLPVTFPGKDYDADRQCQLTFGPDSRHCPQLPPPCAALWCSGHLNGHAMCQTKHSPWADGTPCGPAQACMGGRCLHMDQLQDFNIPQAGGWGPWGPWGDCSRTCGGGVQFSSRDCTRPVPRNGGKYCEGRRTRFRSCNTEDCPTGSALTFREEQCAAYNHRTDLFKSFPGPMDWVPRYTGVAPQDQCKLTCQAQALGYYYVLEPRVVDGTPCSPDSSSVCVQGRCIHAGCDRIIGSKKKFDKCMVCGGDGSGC

ADAMTS5 = target: T2, ADAMTS5 (human, UniProt Q9UNA0 262-622, limits assumed)
T2 sequence (looked up): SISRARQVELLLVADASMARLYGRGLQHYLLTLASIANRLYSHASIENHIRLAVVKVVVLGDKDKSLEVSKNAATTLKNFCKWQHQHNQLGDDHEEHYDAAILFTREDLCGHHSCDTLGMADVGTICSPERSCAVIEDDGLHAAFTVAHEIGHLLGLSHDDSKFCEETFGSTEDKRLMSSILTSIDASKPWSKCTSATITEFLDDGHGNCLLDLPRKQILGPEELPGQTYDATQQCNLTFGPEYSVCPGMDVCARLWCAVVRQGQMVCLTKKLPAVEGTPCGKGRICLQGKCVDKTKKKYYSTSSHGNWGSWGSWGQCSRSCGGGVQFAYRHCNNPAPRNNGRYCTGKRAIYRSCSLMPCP

MMP1 = target: T3, MMP1 (human, UniProt P03956 100-469, limits assumed)
T3 sequence (looked up): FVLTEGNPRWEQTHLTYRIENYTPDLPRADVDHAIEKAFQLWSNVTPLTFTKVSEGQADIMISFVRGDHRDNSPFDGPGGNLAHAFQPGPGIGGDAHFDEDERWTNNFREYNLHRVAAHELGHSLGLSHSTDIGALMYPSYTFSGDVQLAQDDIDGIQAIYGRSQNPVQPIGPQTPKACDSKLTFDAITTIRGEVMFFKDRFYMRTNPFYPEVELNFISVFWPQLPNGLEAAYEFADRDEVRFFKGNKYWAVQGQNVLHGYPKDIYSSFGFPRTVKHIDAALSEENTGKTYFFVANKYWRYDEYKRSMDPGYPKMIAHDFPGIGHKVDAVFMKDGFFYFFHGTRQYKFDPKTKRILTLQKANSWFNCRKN

MMP8 = MMP8 (human, UniProt P22894 101-467, limits assumed)
Sequence of MMP8 (P22894 101-467 limits assumed): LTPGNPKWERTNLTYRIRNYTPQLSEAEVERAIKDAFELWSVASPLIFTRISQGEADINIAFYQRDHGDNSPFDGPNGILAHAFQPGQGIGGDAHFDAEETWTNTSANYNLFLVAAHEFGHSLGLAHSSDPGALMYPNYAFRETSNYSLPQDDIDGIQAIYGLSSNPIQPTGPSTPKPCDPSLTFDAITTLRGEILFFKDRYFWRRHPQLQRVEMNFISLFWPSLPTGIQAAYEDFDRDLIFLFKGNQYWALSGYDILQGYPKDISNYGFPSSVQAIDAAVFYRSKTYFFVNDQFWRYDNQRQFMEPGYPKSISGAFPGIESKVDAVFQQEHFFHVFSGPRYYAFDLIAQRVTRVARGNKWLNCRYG

MMP13 = MMP13 (human, UniProt P45452 104-471, limits assumed)
MMP2 = target: T4, MMP2 (human, UniProt P08253 110-660, limits assumed)
T4 sequence (looked up): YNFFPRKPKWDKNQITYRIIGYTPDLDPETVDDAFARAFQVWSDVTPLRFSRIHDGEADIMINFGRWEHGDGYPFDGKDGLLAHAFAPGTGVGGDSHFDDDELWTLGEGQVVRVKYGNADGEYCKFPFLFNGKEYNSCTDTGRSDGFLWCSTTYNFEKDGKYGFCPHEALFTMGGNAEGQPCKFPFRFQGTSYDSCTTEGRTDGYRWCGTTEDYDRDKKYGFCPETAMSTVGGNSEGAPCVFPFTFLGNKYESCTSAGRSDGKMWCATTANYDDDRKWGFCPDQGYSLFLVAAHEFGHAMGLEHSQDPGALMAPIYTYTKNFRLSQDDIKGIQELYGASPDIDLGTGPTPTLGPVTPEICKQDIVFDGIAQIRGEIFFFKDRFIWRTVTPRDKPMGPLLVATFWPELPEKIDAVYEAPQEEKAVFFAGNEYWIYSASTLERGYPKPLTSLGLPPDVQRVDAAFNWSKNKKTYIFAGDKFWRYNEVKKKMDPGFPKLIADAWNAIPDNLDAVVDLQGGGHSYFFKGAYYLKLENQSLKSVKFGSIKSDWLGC

MMP9 = MMP9 (human, UniProt P14780 107-707, limits assumed)
Sequence of MMP9 (P14780 107-707 limits assumed): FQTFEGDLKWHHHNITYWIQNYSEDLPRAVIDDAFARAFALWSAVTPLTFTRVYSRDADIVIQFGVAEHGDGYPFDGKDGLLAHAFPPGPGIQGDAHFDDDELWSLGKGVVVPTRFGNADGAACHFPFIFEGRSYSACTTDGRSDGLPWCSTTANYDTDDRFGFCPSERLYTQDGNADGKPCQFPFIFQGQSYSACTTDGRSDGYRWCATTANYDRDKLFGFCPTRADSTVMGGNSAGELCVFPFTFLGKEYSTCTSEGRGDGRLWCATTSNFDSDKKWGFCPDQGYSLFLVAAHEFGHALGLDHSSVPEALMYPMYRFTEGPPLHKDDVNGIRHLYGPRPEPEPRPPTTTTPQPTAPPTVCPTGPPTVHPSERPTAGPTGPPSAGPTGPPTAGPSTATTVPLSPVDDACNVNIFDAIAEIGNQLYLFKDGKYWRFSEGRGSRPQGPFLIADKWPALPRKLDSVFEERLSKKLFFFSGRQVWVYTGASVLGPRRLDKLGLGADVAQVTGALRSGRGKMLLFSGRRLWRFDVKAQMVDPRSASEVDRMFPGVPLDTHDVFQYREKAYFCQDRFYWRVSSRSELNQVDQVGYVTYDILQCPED

MMP3 = MMP3 (human, UniProt P08254 100-477, limits assumed)
Sequence of MMP3 (P08254 100-477 limits assumed): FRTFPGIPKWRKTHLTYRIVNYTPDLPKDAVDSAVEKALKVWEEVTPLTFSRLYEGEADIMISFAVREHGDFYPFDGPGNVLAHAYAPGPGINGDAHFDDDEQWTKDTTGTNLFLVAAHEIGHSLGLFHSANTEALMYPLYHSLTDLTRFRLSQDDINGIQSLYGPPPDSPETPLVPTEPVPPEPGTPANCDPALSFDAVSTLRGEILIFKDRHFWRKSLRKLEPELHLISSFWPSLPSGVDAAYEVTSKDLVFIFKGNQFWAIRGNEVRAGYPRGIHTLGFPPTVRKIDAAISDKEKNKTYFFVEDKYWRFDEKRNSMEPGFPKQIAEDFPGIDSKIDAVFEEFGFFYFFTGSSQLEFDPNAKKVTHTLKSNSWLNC

Elastase = target: Elastase
Cathepsin G = target: T5, Cathepsin G (UniProt P08311 21-244)
T5 sequence (looked up): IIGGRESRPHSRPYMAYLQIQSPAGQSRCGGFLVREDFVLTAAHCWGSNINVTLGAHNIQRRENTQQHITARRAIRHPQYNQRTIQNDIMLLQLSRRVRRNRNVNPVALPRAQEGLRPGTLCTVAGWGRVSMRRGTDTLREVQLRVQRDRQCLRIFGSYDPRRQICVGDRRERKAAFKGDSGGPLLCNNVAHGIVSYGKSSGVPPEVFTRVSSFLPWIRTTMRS

MMP7 = target: T6, MMP7 (UniProt P09237 95-267, limits assumed)
T6 sequence (looked up): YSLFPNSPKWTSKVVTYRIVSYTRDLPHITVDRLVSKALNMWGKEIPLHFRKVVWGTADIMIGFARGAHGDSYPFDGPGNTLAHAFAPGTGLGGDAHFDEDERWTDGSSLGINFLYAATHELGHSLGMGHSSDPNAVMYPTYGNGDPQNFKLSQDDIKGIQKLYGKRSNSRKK

Binder | Protease Inhibition (% of WT) (ADAMTS4) | Protease Inhibition (% of WT) (ADAMTS5) | Protease Inhibition (% of WT) (MMP1) | Protease Inhibition (% of WT) (MMP8) | Protease Inhibition (% of WT) (MMP13) | Protease Inhibition (% of WT) (MMP2) | Protease Inhibition (% of WT) (MMP9) | Protease Inhibition (% of WT) (MMP3) | Protease Inhibition (% of WT) (Elastase) | Protease Inhibition (% of WT) (Cathepsin G) | Protease Inhibition (% of WT) (MMP7)
B1 | 201 % of WT | 246 % of WT | 119 % of WT | 64 % of WT | 100 % of WT | 37 % of WT | 41 % of WT | 122 % of WT | 124 % of WT | 117 % of WT | 170 % of WT
B2 | 68 % of WT | 217 % of WT | 84 % of WT | 39 % of WT | 46 % of WT | 66 % of WT | 45 % of WT | 26 % of WT | 59 % of WT | 58 % of WT | 94 % of WT
